Fewer inactive variants are shown than the library holds.
Experiments:
biotinyl-Phe-oxazolone = assay: self-aminoacylation, catalytic enhancement (BFO) (fold over background); higher = more active; k-Seq, kA / k0A0; sequences stand for … in GGGAAUGGAUCCACAUCUACGAAUUC…UUCACUGCAGACUUGACGAAGCUG
Procedure, shortened: (§1)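 The uncatalyzed rate is the low-activity peak of a bimodal Gaussian fit, and catalytic enhancement is median kA divided by it. The kA values came from pseudo-first-order fits, with 1000 bootstraps, of per-sequence fraction reacted measured by streptavidin capture, triplicate qPCR and Illumina sequencing. Mutagenized RNA pools with a 21-nt variable region (0.43 μM) were reacted with each biotinyl-aminoacyl-oxazolone at 2–1250 μM in 50 μL HEPES/NaCl/KCl/MgCl2/CaCl2 buffer with 5% acetonitrile, pH 6.9–7.0, for 90 minutes at room temperature.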

biotinyl-Ile-oxazolone = assay: self-aminoacylation, catalytic enhancement (BIO) (fold over background); higher = more active; k-Seq, kA / k0A0; sequences stand for … in GGGAAUGGAUCCACAUCUACGAAUUC…UUCACUGCAGACUUGACGAAGCUG
Procedure, shortened: as §1

biotinyl-Met-oxazolone = assay: self-aminoacylation, catalytic enhancement (BMO) (fold over background); higher = more active; k-Seq, kA / k0A0; sequences stand for … in GGGAAUGGAUCCACAUCUACGAAUUC…UUCACUGCAGACUUGACGAAGCUG
Procedure, shortened: as §1

biotinyl-Val-oxazolone = assay: self-aminoacylation, catalytic enhancement (BVO) (fold over background); higher = more active; k-Seq, kA / k0A0; sequences stand for … in GGGAAUGGAUCCACAUCUACGAAUUC…UUCACUGCAGACUUGACGAAGCUG
Procedure, shortened: as §1

biotinyl-Leu-oxazolone = assay: self-aminoacylation, catalytic enhancement (BLO) (fold over background); higher = more active; k-Seq, kA / k0A0; sequences stand for … in GGGAAUGGAUCCACAUCUACGAAUUC…UUCACUGCAGACUUGACGAAGCUG
Procedure, shortened: as §1

biotinyl-Trp-oxazolone = assay: self-aminoacylation, catalytic enhancement (BWO) (fold over background); higher = more active; k-Seq, kA / k0A0; sequences stand for … in GGGAAUGGAUCCACAUCUACGAAUUC…UUCACUGCAGACUUGACGAAGCUG
Procedure, shortened: as §1

Sequence | self-aminoacylation (biotinyl-Phe-oxazolone) | self-aminoacylation (biotinyl-Ile-oxazolone) | self-aminoacylation (biotinyl-Met-oxazolone) | self-aminoacylation (biotinyl-Val-oxazolone) | self-aminoacylation (biotinyl-Leu-oxazolone) | self-aminoacylation (biotinyl-Trp-oxazolone)
AUUCACCUAGGUGAUUGGGUG [Fam2.2 aminoacylation ribozyme variant] | 13.2 | 2.17 | 2.68 | 2.41 | 3.06 | 2.96
CUUACCCUGGUCAUCGCGUGA [Fam2.1 aminoacylation ribozyme variant] | 148 | 7.79 | 18.7 | 10.9 | 18.9 | 18.5
AUUCACCUACGUCAUCGCGUG [Fam2.2 aminoacylation ribozyme variant] | 83.5 | 5.7 | 10.3 | 5.93 | 14.1 | 9.63
AUUCACCUAUGUCAUCGGCUG [Fam2.2 aminoacylation ribozyme variant] | 0.644 | 1.38 | 1.21 | 1.3 | 1.26 | 0.681
CCACACUUCAAGCGAUCGGUU [Fam1B.1 aminoacylation ribozyme variant] | 3.6 | 1.77 | 1.48 | 2.08 | 1.53 | 1.77
UCACAGUUCAAGCAAUCGGUC [Fam1B.1 aminoacylation ribozyme variant] | 4.16 | 1.05 | 1.01 | 0.999 | 1.16 | 3.12
AUUACCCCGGUCAUCGAGUGG [Fam2.1 aminoacylation ribozyme variant] | 4.86 | 0.919 | 1.25 | 1.13 | 2.42 | 0.999
UUACUUCAAGCAAUCGGUCUG [Fam1A.1 aminoacylation ribozyme variant] | 5.97 | 0.993 | 1.12 | 0.95 | 1.26 | 3.89
AUAACCCUGGUCAUCGAGCGA [Fam2.1 aminoacylation ribozyme variant] | 1.91 | 1.62 | 1.58 | 1.59 | 2.88 | 1.52
AUUCACCGAGGUGAUCGGGUG [Fam2.2 aminoacylation ribozyme variant] | 29.6 | 3.8 | 4.75 | 4.15 | 6.59 | 3.05
CCACACGUCAAGCCAUCGGUC [Fam1B.1 aminoacylation ribozyme variant] | 1.11 | 1.34 | 1.58 | 2.45 | 1.48 | 1.21
AUUAACCUGGGUCAUCGGGUG [Fam2.2 aminoacylation ribozyme variant] | 39.6 | 6.99 | 13.4 | 6.35 | 15.6 | 11.4
AAGUUUGCUAAUCGUUGCAAG [Fam3.1 aminoacylation ribozyme variant] | 1.13 | 0.834 | 0.824 | 0.881 | 0.77 | 0.987
AUUCACCUAGGUCAUCCGGCG [Fam2.2 aminoacylation ribozyme variant] | 15.3 | 3.31 | 3.55 | 4.01 | 3.69 | 4.29
AAGUUUGCUAAUAGUGGCAAC [Fam3.1 aminoacylation ribozyme variant] | 0.826 | 0.805 | 0.737 | 0.822 | 0.783 | 0.575
AUGCACCUAGGUCAGCGGGUG [Fam2.2 aminoacylation ribozyme variant] | 18.1 | 3.27 | 3.65 | 3.02 | 4.65 | 5.27
AUUCACCUAGGUCCUCUGGUG [Fam2.2 aminoacylation ribozyme variant] | 31.1 | 2.57 | 4.3 | 2.58 | 5.9 | 4.56
UGGUUUGCUAAUAGUCGCAAG [Fam3.1 aminoacylation ribozyme variant] | 8.93 | 1.81 | 1.88 | 1.51 | 1.58 | 4.47
AUUCGCCUAGGUCAUCAGGUG [Fam2.2 aminoacylation ribozyme variant] | 7.29 | 1.48 | 1.97 | 1.53 | 2.02 | 2.53
AAGUUCGCUAAUACUCGCAAG [Fam3.1 aminoacylation ribozyme variant] | 0.849 | 1.53 | 1.47 | 1.12 | 1.2 | 0.7
CUACUUCAGACAAUCCGUCUG [Fam1A.1 aminoacylation ribozyme variant] | 1.86 | 0.902 | 0.675 | 0.826 | 0.963 | 1.23
CCACACUUCAAUCAAUUGGUC [Fam1B.1 aminoacylation ribozyme variant] | 0.876 | 0.598 | 0.527 | 0.616 | 0.545 | 0.719
CUACUUGAAACAAUCGGCCUG [Fam1A.1 aminoacylation ribozyme variant] | 0.788 | 1.84 | 1.96 | 1.68 | 1.45 | 1.38
AUUCAUAUAGGUCAUCGGGUG [Fam2.2 aminoacylation ribozyme variant] | 34.2 | 3.42 | 4.9 | 3.28 | 6.04 | 5.78
CUUACCCUCGUCAUCGAGUGA [Fam2.1 aminoacylation ribozyme variant] | 3.66 | 1.82 | 2.42 | 1.92 | 2.47 | 3.21
CUACUUUAAACAAUCGGGCUG [Fam1A.1 aminoacylation ribozyme variant] | 0.648 | 1.2 | 1.25 | 1.06 | 1.07 | 0.746

Sequence | self-aminoacylation (biotinyl-Phe-oxazolone) | self-aminoacylation (biotinyl-Ile-oxazolone) | self-aminoacylation (biotinyl-Met-oxazolone) | self-aminoacylation (biotinyl-Val-oxazolone) | self-aminoacylation (biotinyl-Leu-oxazolone) | self-aminoacylation (biotinyl-Trp-oxazolone)
CGACUUCAAACAAUCGGGCUG [Fam1A.1 aminoacylation ribozyme variant] | 10.4 | 2.45 | 2.05 | 2.73 | 2.34 | 12.7
CUACUUCAAACAUUCGGUCUC [Fam1A.1 aminoacylation ribozyme variant] | 0.796 | 0.986 | 0.849 | 0.975 | 0.806 | 0.715
GAGUCUGCUAAUAGUCGCAAG [Fam3.1 aminoacylation ribozyme variant] | 46.9 | 1.99 | 2.34 | 1.63 | 2.07 | 14
CCACACUUCAAGCAUUCAGUC [Fam1B.1 aminoacylation ribozyme variant] | 1.03 | 0.878 | 0.505 | 0.758 | 0.576 | 0.562
AUUCACCUAGGUCCUGGGGUG [Fam2.2 aminoacylation ribozyme variant] | 57.2 | 4.6 | 7.35 | 4.05 | 9.12 | 7.11
AUUACCCUUGACAUCGAGUGA [Fam2.1 aminoacylation ribozyme variant] | 50.8 | 4.31 | 10.8 | 5.25 | 11 | 13.5
AAGAUUGCUAAUAGUCUCAAG [Fam3.1 aminoacylation ribozyme variant] | 1.48 | 1.1 | 0.751 | 1.08 | 1.09 | 1.18
AUUGACCUAGGUCACCGGGUG [Fam2.2 aminoacylation ribozyme variant] | 29.6 | 4.43 | 4.69 | 4.87 | 6.34 | 6.05
CCACACUUCAAGCAAUAGGUG [Fam1B.1 aminoacylation ribozyme variant] | 4.08 | 1.85 | 2.17 | 1.65 | 2.81 | 2.55
AUUCACCUAGCUCAUCGAGUG [Fam2.2 aminoacylation ribozyme variant] | 0.417 | 0.7 | 0.652 | 0.791 | 0.548 | 0.394
AAGUUAGCUAACAGUCGCAAG [Fam3.1 aminoacylation ribozyme variant] | 2.2 | 1.83 | 2.31 | 1.68 | 1.66 | 1.56
AUUAACCUGAUCAUCGAGUGA [Fam2.1 aminoacylation ribozyme variant] | 41.3 | 4.54 | 9.97 | 4.67 | 10.2 | 13.7
AAGUUUGCUUAUAGUCGCAAU [Fam3.1 aminoacylation ribozyme variant] | 1.74 | 1.1 | 1.41 | 1.22 | 1.27 | 1.03
AUUACAUUGGUCAUCGAGUGA [Fam2.1 aminoacylation ribozyme variant] | 22.8 | 3.03 | 5.35 | 2.95 | 5.8 | 6.85
CCACACUUCAAGCGAUCGGGC [Fam1B.1 aminoacylation ribozyme variant] | 1.07 | 2.4 | 2.65 | 2.89 | 1.64 | 3.13
AAUCACCAAGGUCAUCGGGUG [Fam2.2 aminoacylation ribozyme variant] | 54.3 | 4.92 | 6.79 | 5.67 | 10.7 | 8.66
CCACACUUAAACCAAUCGGUC [Fam1B.1 aminoacylation ribozyme variant] | 1.19 | 0.938 | 0.615 | 0.756 | 0.572 | 0.722
CUACUUCAAACAAUCGGACUU [Fam1A.1 aminoacylation ribozyme variant] | 1.04 | 0.788 | 0.737 | 0.85 | 0.665 | 1.07
CUACAUCAAACAAUCGGACUG [Fam1A.1 aminoacylation ribozyme variant] | 1.11 | 1.1 | 0.804 | 0.974 | 0.586 | 0.749
CCACUCUUAAAGCAAUCGGUC [Fam1B.1 aminoacylation ribozyme variant] | 0.711 | 1.06 | 0.911 | 1.01 | 0.993 | 0.693
CUACUUUAAACAAUCGGUCGG [Fam1A.1 aminoacylation ribozyme variant] | 0.521 | 0.945 | 1.08 | 0.911 | 0.963 | 0.769
GUUACCCUGGUCAGCGAGUGA [Fam2.1 aminoacylation ribozyme variant] | 42.9 | 4.8 | 6.72 | 4.05 | 6.76 | 7.95
CUUACCCUGGUCACCGAGUGA [Fam2.1 aminoacylation ribozyme variant] | 57.1 | 3.87 | 9.14 | 4.49 | 8.9 | 8.62
AUUACCCUGGUCAUCGAAUGU [Fam2.1 aminoacylation ribozyme variant] | 0.64 | 0.894 | 0.925 | 0.788 | 1.06 | 0.653
AUUCACCUAAGGCAUCGGGUG [Fam2.2 aminoacylation ribozyme variant] | 26.5 | 2.69 | 3.3 | 3.31 | 4.9 | 3.67

— the supplement of paper PMC9233669
